Laboratory results reported in paper PMC4161314.
Where “and” joins values, the source holds several entries; their conditions need not be identical. Identical values can stand only once.

Target: 20S proteolytic core of the proteasome, mouse liver (mouse (endogenous in mouse liver)) (UniProt O55234)
Assay: negative-stain electron microscopy; proteasomes co-purified with polyubiquitin conjugates on GstUBD beads, released at 37°C for 7 minutes, stained with 2% uranyl acetate; visual classification of side views, WT and PiZ samples

Sequence of UniProt O55234 (O55234 whole entry, looked up): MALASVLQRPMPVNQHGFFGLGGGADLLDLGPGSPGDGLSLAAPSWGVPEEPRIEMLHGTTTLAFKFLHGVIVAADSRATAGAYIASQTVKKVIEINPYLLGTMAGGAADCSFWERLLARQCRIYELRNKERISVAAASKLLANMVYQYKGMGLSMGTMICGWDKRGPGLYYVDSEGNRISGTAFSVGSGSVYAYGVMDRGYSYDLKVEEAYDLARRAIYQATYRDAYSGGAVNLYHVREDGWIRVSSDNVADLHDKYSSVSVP

- percent of proteasomes with at least one 19S cap: 93% and 90%
Substance: 19S activator of the proteasome, mouse liver (from UniProt P62334 1-389) (complex)
